From article PMC10728164 come the findings set out here.

The test concerns the target cardiac troponin I (human (endogenous in heart tissue)) (UniProt P19429). Put plainly: affinity purification with mass spectrometry; co-purification of the cTn subunits from human heart extract on the cTnI-binding peptide nanoparticles (NP-Pep); 25 mM Tris pH 7.5, 700 mM LiCl, 4 °C; native elution; subunits in the eluate analysed (Supplementary Fig. 2, 3a) and by top-down RPLC-MS/MS.
Sequence of UniProt P19429 (P19429 whole entry): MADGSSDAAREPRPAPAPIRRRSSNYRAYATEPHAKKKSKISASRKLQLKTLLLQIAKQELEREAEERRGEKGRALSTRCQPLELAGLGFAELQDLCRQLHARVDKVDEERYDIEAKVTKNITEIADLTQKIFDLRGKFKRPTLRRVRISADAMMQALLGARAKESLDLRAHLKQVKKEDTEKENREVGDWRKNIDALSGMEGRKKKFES

As to cardiac troponin T (natural protein), the stoichiometry N turned out to be 1.

Broadly, the stoichiometry N is a count of units in the complex or per binding partner.
